Reference: the supplement of paper PMC7125110
± gives the standard error. For some assays here: This sample holds only a part of the variants without activity.

B1: glmS ribozyme (parent)
chain: AUAAAAGCGCCAGAACUACAGAAAUGUAGUUGACGAGGAGGAGGUUUAUCGAAUUUUCGGCGGAUGCCUCCAAA

Assays:
Details in all cases: with glucosamine-6-phosphate
glucosamine-6-phosphate [1] = variants of: B1; test: kcat; higher = faster cleavage; RNA array
Summary of the method: (§1)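 Barcoded ribozyme variants on sequenced MiSeq chips were transcribed in situ by E. coli RNA polymerase and followed at 37 °C through a hybridised Cy3 probe. Glucosamine-6-phosphate at 40 μM to 10 mM in HEPES/KCl/Mg(OAc)2 buffer was flowed in, and tiles were imaged over ~14 h. Signals were normalised to baseline and to non-cleaving reference variants, and per-tile medians were fit to one- or two-exponential decays to give kobs. Weighted Michaelis–Menten fits across concentrations gave kcat and KM.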

glucosamine-6-phosphate [2] = variants of: B1; test: KM; higher = weaker cofactor use; RNA array
Summary of the method: as §1

glucosamine-6-phosphate [3] = variants of: B1; test: self-cleavage kobs at 40 uM GlcN6P; higher = faster cleavage; RNA array
Summary of the method: as §1

glucosamine-6-phosphate [4] = variants of: B1; test: self-cleavage kobs at 160 uM GlcN6P; higher = faster cleavage; RNA array
Summary of the method: as §1

glucosamine-6-phosphate [5] = variants of: B1; test: self-cleavage kobs at 640 uM GlcN6P; higher = faster cleavage; RNA array
Summary of the method: as §1

glucosamine-6-phosphate [6] = variants of: B1; test: self-cleavage kobs at 2500 uM GlcN6P; higher = faster cleavage; RNA array
Summary of the method: as §1

glucosamine-6-phosphate [7] = variants of: B1; test: self-cleavage kobs at 10000 uM GlcN6P; higher = faster cleavage; RNA array
Summary of the method: as §1

Row | Variant | kcat (glucosamine-6-phosphate [1]) [s⁻¹] | KM (glucosamine-6-phosphate [2]) [µM] | self-cleavage kobs at 40 uM GlcN6P (glucosamine-6-phosphate [3]) [s⁻¹] | self-cleavage kobs at 160 uM GlcN6P (glucosamine-6-phosphate [4]) [s⁻¹] | self-cleavage kobs at 640 uM GlcN6P (glucosamine-6-phosphate [5]) [s⁻¹] | self-cleavage kobs at 2500 uM GlcN6P (glucosamine-6-phosphate [6]) [s⁻¹] | self-cleavage kobs at 10000 uM GlcN6P (glucosamine-6-phosphate [7]) [s⁻¹]
1 | C16G G66A | 0.00183 ± 0.0004 | 1140 ± 380 | 7.41e-05 ± 1.1e-05 | 0.000199 ± 5.6e-05 | 0.000593 ± 8.9e-05 | 0.00111 ± 0.00019 | 0.00218 ± 0.00038
2 | G37U U47A | < 1e-05 |  |  |  | < 1e-05 |  | 
3 | C10U C71U | 3.48e-05 ± 5.8e-06 |  | < 1e-05 |  |  | 1.75e-05 ± 5.3e-06 | 3.05e-05 ± 5.4e-06
4 | A15G U45C | 0.00752 ± 0.0016 | 5570 ± 1600 | 7.04e-05 ± 1.4e-05 | 0.000179 ± 3.2e-05 | 0.000853 ± 0.00012 | 0.00219 ± 0.00027 | 0.00497 ± 0.00061
5 | C50A C71U | 1.86e-05 ± 6.3e-07 | 296 ± 82 |  |  |  |  | 1.86e-05 ± 8.6e-06
6 | A12U A39C | 0.00341 ± 0.00095 | 2770 ± 1100 | 9.51e-05 ± 1.7e-05 | 0.000149 ± 2.7e-05 | 0.000656 ± 8.7e-05 | 0.00163 ± 0.00023 | 0.00266 ± 0.00035
7 | U45G U65C | 9.08e-05 ± 1.1e-05 | 3060 ± 1100 |  |  |  | 4.24e-05 ± 1.4e-05 | 6.91e-05 ± 1.3e-05
8 | A15U C58U | 8.55e-05 ± 9.3e-06 | 3320 ± 980 |  |  |  | 3.46e-05 ± 8.3e-06 | 6.48e-05 ± 8.4e-06
9 | G13U C67G | < 1e-05 |  | < 1e-05 |  |  |  | 
10 | G44U U47G | 1.56e-05 ± 2.1e-07 | 2560 ± 150 |  |  |  |  | 
11 | U56G C68G | 6.61e-05 ± 1e-05 |  |  |  |  | 2.78e-05 ± 1.4e-05 | 5.46e-05 ± 8.1e-06
12 | G29C U30A | 0.000322 ± 1.4e-05 | 2880 ± 230 |  |  | 5.97e-05 ± 1.4e-05 | 0.000141 ± 3.8e-05 | 0.000253 ± 4.6e-05
13 | G60C C71A | < 1e-05 |  | < 1e-05 |  |  |  | 
14 | A42C C50A | < 1e-05 |  | < 1e-05 |  |  | < 1e-05 | < 1e-05
15 | G37U C67U | 1.39e-05 ± 4.5e-06 |  | < 1e-05 |  |  |  | 
16 | U49G C70G | 4.12e-05 ± 2.8e-06 |  |  | 3.09e-05 ± 1.3e-05 | 4.22e-05 ± 9e-06 | 3.6e-05 ± 8e-06 | 4.11e-05 ± 6e-06
17 | G9U C71U | < 1e-05 |  | < 1e-05 | < 1e-05 | < 1e-05 |  | < 1e-05
18 | G37C G60C | < 1e-05 |  |  |  |  |  | < 1e-05
19 | G32U U46A | 0.000102 ± 7.4e-06 | 4100 ± 670 |  |  |  | 3.94e-05 ± 1.1e-05 | 7.21e-05 ± 1.5e-05
